Test [1] concerns the target T1, human CD123 (IL-3Rα, interleukin-3 receptor alpha chain) (human, UniProt P26951 19-378). Description: cell-based or functional assay.
Test [2] has as its target T1, human CD123 (IL-3Rα, interleukin-3 …). Description: cell-based or functional assay. The source holds these as a separate data set.

T1 sequence (P26951 19-378): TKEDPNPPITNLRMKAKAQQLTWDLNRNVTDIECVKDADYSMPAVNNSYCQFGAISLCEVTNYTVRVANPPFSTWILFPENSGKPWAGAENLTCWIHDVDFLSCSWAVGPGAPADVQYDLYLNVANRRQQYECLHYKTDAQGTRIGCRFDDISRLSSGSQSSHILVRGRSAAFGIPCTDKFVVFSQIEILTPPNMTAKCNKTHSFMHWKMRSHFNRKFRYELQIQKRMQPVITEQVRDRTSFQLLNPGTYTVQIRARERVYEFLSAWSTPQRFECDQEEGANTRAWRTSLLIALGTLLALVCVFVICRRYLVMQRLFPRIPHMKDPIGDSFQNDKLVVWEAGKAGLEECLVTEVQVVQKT

B1: huCD123-6Gv4.6-CysMab-D5 (antibody)
heavy: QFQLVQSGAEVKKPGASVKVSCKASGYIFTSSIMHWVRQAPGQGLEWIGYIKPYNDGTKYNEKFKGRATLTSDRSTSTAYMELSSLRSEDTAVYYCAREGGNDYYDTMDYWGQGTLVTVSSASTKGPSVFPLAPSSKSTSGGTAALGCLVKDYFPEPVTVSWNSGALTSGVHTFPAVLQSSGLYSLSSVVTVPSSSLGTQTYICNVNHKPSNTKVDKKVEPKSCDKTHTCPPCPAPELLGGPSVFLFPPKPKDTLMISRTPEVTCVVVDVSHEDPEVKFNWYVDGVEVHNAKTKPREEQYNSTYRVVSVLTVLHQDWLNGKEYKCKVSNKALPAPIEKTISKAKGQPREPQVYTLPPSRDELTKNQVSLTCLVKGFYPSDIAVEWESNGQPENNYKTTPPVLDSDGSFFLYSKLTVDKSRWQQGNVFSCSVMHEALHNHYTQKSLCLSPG
light: DIQMTQSPSSLSASVGDRVTITCRASQDINSYLSWFQQKPGKAPKTLIYRVNRLVDGVPSRFSGSGSGNDYTLTISSLQPEDFATYYCLQYDAFPYTFGQGTKVEIKRTVAAPSVFIFPPSDEQLKSGTASVVCLLNNFYPREAKVQWKVDNALQSGNSQESVTEQDSKDSTYSLSSTLTLSKADYEKHKVYACEVTHQGLSSPVTKSFNRGEC
modifications: D5 linked through the engineered Cys in the heavy chain CH3 domain (5th to the last residue of SEQ ID NO: 54)
On to B1, for which, in test [1], the “IC50, in vitro cytotoxicity on EOL-1 cells” value is approximately 0.002 nM; the “IC50, in vitro cytotoxicity on KOPN-8 cells” value was approximately 0.005 nM; the “IC50, in vitro cytotoxicity on MOLM-1 cells” value was approximately 0.02 nM; the “fold loss of cytotoxicity when CD123 is blocked by the unconjugated chCD123-6 antibody” value was not below 100 fold.

B2: lysine-linked huCD123-6-IGN conjugate with DGN462 (antibody, human IgG1, kappa)
heavy: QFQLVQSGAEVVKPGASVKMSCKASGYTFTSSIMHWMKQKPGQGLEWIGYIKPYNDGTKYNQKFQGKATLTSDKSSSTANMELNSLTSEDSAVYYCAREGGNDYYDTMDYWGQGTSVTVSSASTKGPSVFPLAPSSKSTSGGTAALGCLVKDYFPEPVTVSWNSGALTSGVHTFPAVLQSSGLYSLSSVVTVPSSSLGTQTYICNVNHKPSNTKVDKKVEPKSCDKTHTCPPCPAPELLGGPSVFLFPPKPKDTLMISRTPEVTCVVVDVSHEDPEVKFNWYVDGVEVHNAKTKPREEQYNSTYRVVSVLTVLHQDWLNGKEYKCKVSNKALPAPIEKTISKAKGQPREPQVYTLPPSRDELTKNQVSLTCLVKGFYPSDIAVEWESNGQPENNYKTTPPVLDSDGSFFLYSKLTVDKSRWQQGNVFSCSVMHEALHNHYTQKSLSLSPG
light: DIQMTQSPSSMSASVGERVTITCRASQDINSYLSWFQQKPGKSPKTLIYRVNRLVDGVPSRFSGSGSGQDYSLTISSLEPEDMGIYYCLQYDAFPYTFGQGTKLEIKRTVAAPSVFIFPPSDEQLKSGTASVVCLLNNFYPREAKVQWKVDNALQSGNSQESVTEQDSKDSTYSLSSTLTLSKADYEKHKVYACEVTHQGLSSPVTKSFNRGEC
modifications: DGN462 linked at Lys residues; sites not stated; DGN462 linked at Lys residues; sites and drug load not given
For the molecule B2, in test [2], the “IC50, in vitro cytotoxicity on EOL-1 cells (AML)” value (from here on “IC50 … on EOL-1 cells (AML)”) came to 0.009 nM; the “IC50, in vitro cytotoxicity on Granta519 cells (NHL)” value turned out to be 0.012 nM; the “IC50, in vitro cytotoxicity on HNT-34 cells (AML)” value (from here on “IC50 … on HNT-34 cells (AML)”) turned out to be 0.023 nM; the “IC50, in vitro cytotoxicity on JM-1 cells (B-ALL)” value (shortened to “IC50 … on JM-1 cells (B-ALL)”) turned out to be 0.32 nM. Moreover, in test [2], the “IC50, in vitro cytotoxicity on KASUMI-3 cells (AML)” value (“IC50 … on KASUMI-3 cells (AML)” below) was found to be 2.8 nM; the “IC50, in vitro cytotoxicity on KCL-22 cells (CML)” value (“IC50 … on KCL-22 cells (CML)” below) was 2 nM; the “IC50, in vitro cytotoxicity on KG-1 cells (AML)” value (from here on “IC50 … on KG-1 cells (AML)”) is 0.85 nM; the “IC50, in vitro cytotoxicity on KO52 cells (AML)” value (“IC50 … on KO52 cells (AML)” for short) is 0.39 nM. Moreover, in test [2], the “IC50, in vitro cytotoxicity on KOPN8 cells (B-ALL)” value (“IC50 … on KOPN8 cells (B-ALL)” for short) worked out at 0.053 nM; the “IC50, in vitro cytotoxicity on MOLM-1 cells (CML)” value (“IC50 … on MOLM-1 cells (CML)” below) amounted to 1.1 nM; the “IC50, in vitro cytotoxicity on MOLM-13 cells (AML)” value (from here on “IC50 … on MOLM-13 cells (AML)”) was 0.0022 nM; the “IC50, in vitro cytotoxicity on MV4-11 cells (AML)” value (“IC50 … on MV4-11 cells (AML)” below) turned out to be 0.0016 nM. For the same molecule, in test [2], the “IC50, in vitro cytotoxicity on OCI-AML2 cells (AML)” value (from here on “IC50 … on OCI-AML2 cells (AML)”) is 0.14 nM; the “IC50, in vitro cytotoxicity on SHI-1 cells (AML)” value (“IC50 … on SHI-1 cells (AML)” for short) stood at 0.17 nM; the “IC50, in vitro cytotoxicity on THP1 cells (AML)” value (from here on “IC50 … on THP1 cells (AML)”) is 0.19 nM.

B3: huCD123-6Rv1.1-CX1-1-DM1 (antibody)
heavy: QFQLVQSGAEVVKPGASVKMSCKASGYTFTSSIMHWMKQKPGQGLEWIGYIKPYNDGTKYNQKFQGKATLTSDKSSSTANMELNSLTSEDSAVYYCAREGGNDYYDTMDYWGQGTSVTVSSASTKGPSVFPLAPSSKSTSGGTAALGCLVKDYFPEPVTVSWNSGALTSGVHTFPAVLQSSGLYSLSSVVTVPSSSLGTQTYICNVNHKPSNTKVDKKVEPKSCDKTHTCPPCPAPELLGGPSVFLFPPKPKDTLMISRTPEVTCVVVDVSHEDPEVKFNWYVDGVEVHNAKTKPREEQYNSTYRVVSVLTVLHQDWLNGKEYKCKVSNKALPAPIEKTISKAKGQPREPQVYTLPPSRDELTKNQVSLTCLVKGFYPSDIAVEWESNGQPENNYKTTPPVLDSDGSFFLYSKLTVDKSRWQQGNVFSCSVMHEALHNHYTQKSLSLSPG
light: DIQMTQSPSSMSASVGERVTITCRASQDINSYLSWFQQKPGKSPKTLIYRVNRLVDGVPSRFSGSGSGQDYSLTISSLEPEDMGIYYCLQYDAFPYTFGQGTKLEIKRTVAAPSVFIFPPSDEQLKSGTASVVCLLNNFYPREAKVQWKVDNALQSGNSQESVTEQDSKDSTYSLSSTLTLSKADYEKHKVYACEVTHQGLSSPVTKSFNRGEC
modifications: DM1 linked at Lys residues via the triglycyl CX1-1 linker; sites not stated; DM1 linked at Lys residues via the triglycyl CX1-1 linker; average of 4.3 or 6.7 maytansinoid per antibody, sites not stated
In the case of B3, the “IC50, in vitro cytotoxicity on OCI-AML4 cells” value in test [1] was found to be 0.07 nM.

B4: lysine-linked huCD123-6-IGN conjugate with D3 (antibody, human IgG1, kappa)
heavy: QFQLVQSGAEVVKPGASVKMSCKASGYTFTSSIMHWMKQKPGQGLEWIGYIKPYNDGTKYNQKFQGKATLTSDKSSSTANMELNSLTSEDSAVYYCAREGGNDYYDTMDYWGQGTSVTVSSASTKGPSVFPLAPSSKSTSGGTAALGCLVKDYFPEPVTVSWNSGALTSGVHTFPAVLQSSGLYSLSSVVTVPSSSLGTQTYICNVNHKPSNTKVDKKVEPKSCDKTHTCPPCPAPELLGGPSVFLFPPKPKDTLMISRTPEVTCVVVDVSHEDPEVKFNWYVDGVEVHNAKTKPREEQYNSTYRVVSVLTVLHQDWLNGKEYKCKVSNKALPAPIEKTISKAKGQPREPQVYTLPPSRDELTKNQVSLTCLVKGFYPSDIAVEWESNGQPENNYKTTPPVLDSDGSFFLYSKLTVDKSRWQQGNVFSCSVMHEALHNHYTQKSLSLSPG
light: DIQMTQSPSSMSASVGERVTITCRASQDINSYLSWFQQKPGKSPKTLIYRVNRLVDGVPSRFSGSGSGQDYSLTISSLEPEDMGIYYCLQYDAFPYTFGQGTKLEIKRTVAAPSVFIFPPSDEQLKSGTASVVCLLNNFYPREAKVQWKVDNALQSGNSQESVTEQDSKDSTYSLSSTLTLSKADYEKHKVYACEVTHQGLSSPVTKSFNRGEC
modifications: D3 linked at Lys residues; sites not stated; D3 linked at Lys residues; sites and drug load not given
In the case of B4, in test [2], the “IC50 … on EOL-1 cells (AML)” value was 0.0033 nM; the “IC50, in vitro cytotoxicity on Granta519 cells (NHL)” value was 0.0021 nM; the “IC50 … on HNT-34 cells (AML)” value stood at 0.0032 nM; the “IC50 … on JM-1 cells (B-ALL)” value worked out at 0.17 nM. Besides, in test [2], the “IC50 … on KASUMI-3 cells (AML)” value turned out to be 0.023 nM; the “IC50 … on KCL-22 cells (CML)” value was found to be 0.95 nM; the “IC50 … on KG-1 cells (AML)” value was determined as 6.6 nM; the “IC50 … on KO52 cells (AML)” value stood at 0.24 nM. Moreover, in test [2], the “IC50 … on KOPN8 cells (B-ALL)” value was found to be 0.022 nM; the “IC50 … on MOLM-1 cells (CML)” value worked out at 0.071 nM; the “IC50 … on MOLM-13 cells (AML)” value was found to be 0.00046 nM; the “IC50 … on MV4-11 cells (AML)” value came to 0.00054 nM. In addition, in test [2], the “IC50 … on OCI-AML2 cells (AML)” value was 0.1 nM; the “IC50 … on SHI-1 cells (AML)” value is 0.029 nM; the “IC50 … on THP1 cells (AML)” value came to 0.03 nM.

B5: huCD123-6Rv1.1S2-SeriMab-D8 (antibody, human IgG1, kappa)
heavy: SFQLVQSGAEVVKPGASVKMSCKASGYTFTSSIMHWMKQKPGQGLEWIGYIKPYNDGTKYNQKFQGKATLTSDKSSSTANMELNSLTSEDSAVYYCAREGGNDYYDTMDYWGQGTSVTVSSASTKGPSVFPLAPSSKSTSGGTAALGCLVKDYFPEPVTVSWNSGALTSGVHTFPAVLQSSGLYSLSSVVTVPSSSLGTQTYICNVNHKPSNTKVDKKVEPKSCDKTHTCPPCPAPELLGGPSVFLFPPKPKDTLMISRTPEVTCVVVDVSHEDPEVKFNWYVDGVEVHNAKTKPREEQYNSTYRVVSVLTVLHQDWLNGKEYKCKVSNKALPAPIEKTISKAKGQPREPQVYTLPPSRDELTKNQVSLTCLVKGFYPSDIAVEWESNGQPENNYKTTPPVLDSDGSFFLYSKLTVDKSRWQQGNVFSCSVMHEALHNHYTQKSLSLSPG
light: DIQMTQSPSSMSASVGERVTITCRASQDINSYLSWFQQKPGKSPKTLIYRVNRLVDGVPSRFSGSGSGQDYSLTISSLEPEDMGIYYCLQYDAFPYTFGQGTKLEIKRTVAAPSVFIFPPSDEQLKSGTASVVCLLNNFYPREAKVQWKVDNALQSGNSQESVTEQDSKDSTYSLSSTLTLSKADYEKHKVYACEVTHQGLSSPVTKSFNRGEC
modifications: D8 linked through the oxidized N-terminal Ser on the heavy chain
As to B5, in test [1], the “IC50, in vitro cytotoxicity on HNT-34 cells” value is approximately 0.002 nM; the “IC50, in vitro cytotoxicity on MOLM-1 cells” value was approximately 0.03 nM; the “IC50, in vitro cytotoxicity on SHI-1 cells” value is approximately 0.01 nM; the “fold loss of cytotoxicity when CD123 is blocked by the unconjugated huCD123-6 antibody” value is not below 100 fold.

B6: huCD123-6Gv4.6-D2 (antibody, human IgG1, kappa)
heavy: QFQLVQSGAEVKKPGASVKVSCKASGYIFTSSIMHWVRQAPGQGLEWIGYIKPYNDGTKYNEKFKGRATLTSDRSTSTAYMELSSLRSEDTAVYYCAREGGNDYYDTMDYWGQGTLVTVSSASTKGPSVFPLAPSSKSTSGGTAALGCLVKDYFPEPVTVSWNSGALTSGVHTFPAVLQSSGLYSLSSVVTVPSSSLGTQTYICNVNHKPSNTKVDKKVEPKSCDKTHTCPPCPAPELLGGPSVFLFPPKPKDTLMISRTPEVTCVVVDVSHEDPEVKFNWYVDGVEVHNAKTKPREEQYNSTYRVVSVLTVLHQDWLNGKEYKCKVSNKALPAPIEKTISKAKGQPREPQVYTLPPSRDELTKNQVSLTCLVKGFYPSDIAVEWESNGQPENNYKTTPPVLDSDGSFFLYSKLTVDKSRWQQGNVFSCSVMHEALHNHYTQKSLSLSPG
light: DIQMTQSPSSLSASVGDRVTITCRASQDINSYLSWFQQKPGKAPKTLIYRVNRLVDGVPSRFSGSGSGNDYTLTISSLQPEDFATYYCLQYDAFPYTFGQGTKVEIKRTVAAPSVFIFPPSDEQLKSGTASVVCLLNNFYPREAKVQWKVDNALQSGNSQESVTEQDSKDSTYSLSSTLTLSKADYEKHKVYACEVTHQGLSSPVTKSFNRGEC
modifications: D2 linked at Lys residues; sites not stated; D2 linked at Lys residues; sites and drug load not stated
As to B6, in test [1], the “IC50, in vitro cytotoxicity on EOL-1 cells” value is approximately 0.002 nM; the “IC50, in vitro cytotoxicity on KOPN-8 cells” value was approximately 0.005 nM; the “IC50, in vitro cytotoxicity on MOLM-1 cells” value is approximately 0.02 nM; the “fold loss of cytotoxicity when CD123 is blocked by the unconjugated chCD123-6 antibody” value was not below 100 fold.

B7: lysine-linked huCD123-6-IGN conjugate with D1 (antibody, human IgG1, kappa)
heavy: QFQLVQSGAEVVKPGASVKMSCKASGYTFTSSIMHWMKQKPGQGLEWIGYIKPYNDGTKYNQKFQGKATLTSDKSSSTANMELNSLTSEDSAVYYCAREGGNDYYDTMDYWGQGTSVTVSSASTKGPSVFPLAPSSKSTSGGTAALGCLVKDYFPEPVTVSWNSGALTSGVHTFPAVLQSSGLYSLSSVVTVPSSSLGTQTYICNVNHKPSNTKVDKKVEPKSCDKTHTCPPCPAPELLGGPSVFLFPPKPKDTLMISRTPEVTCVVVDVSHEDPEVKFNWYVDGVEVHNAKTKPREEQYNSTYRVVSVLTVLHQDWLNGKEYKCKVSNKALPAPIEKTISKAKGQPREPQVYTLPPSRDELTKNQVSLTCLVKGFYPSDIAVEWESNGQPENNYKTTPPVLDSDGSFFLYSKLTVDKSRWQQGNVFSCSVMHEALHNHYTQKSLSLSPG
light: DIQMTQSPSSMSASVGERVTITCRASQDINSYLSWFQQKPGKSPKTLIYRVNRLVDGVPSRFSGSGSGQDYSLTISSLEPEDMGIYYCLQYDAFPYTFGQGTKLEIKRTVAAPSVFIFPPSDEQLKSGTASVVCLLNNFYPREAKVQWKVDNALQSGNSQESVTEQDSKDSTYSLSSTLTLSKADYEKHKVYACEVTHQGLSSPVTKSFNRGEC
modifications: D1 linked at Lys residues; sites not stated; D1 linked at Lys residues; sites and drug load not given
Turning to B7, in test [2], the “IC50 … on EOL-1 cells (AML)” value worked out at 0.0047 nM; the “IC50 … on HNT-34 cells (AML)” value worked out at 0.0059 nM; the “IC50 … on JM-1 cells (B-ALL)” value is 0.41 nM; the “IC50 … on KASUMI-3 cells (AML)” value worked out at 0.14 nM. Also, in test [2], the “IC50 … on KCL-22 cells (CML)” value stood at 0.29 nM; the “IC50 … on KG-1 cells (AML)” value was 4.1 nM; the “IC50 … on KO52 cells (AML)” value came out at 0.41 nM; the “IC50 … on KOPN8 cells (B-ALL)” value turned out to be 0.03 nM. Also, in test [2], the “IC50 … on MOLM-1 cells (CML)” value stood at 0.21 nM; the “IC50 … on MOLM-13 cells (AML)” value is 0.0012 nM; the “IC50 … on MV4-11 cells (AML)” value is 0.0013 nM; the “IC50 … on OCI-AML2 cells (AML)” value stood at 0.21 nM. In test [2], the “IC50 … on SHI-1 cells (AML)” value was 0.032 nM and the “IC50 … on THP1 cells (AML)” value worked out at 0.058 nM.

(Values after patent publication US20180079819A1 (IMMUNOGEN, published 2018).)
